Substitutions are numbered along the chain they refer to. Numbers in names are those of the source.
T1: SF3B1 ULM5 peptide (residues 333-351), wild type (human, UniProt O75533-1 333-351)
T1 peptide: KRKSRWDETPASQMGGSTP

B1: U2AF2 UHM (U2AF homology motif domain of U2AF2) (domain or fragment)
chain: TEVLCLMNMVLPEELLDDEEYEEIVEDVRDECSKYGLVKSIEIPRPVDGVEVPGCGKIFVEFTSVFDCQKAMQGLTGRKFANRVVVTKYCDPDSYHRRDFW
B2: U2AF2 UHM K453A (domain or fragment)
chain: B1 chain with K79A

Target: T1, SF3B1 ULM5 peptide (residues 333-351), …
Assay: ITC

Binder	fold increase of affinity against the ULM5 peptide with the longer N-terminus [fold]	fold decrease of affinity against the wild-type U2AF2 UHM [fold]
B1	2	
B2		4
